# B1: ZER1 (parent)
# chain: FDGPEAWGVCEPQREEVEERMWAA
# Variants of: B1
# Test: protein stability index of a GFP-peptide fusion (GPS, HEK-293T) (PSI 1-6); higher = more stable
# Conditions: c terminus: a fixed tail appended
# 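Note: lentivirally expressed fusions sorted by FACS into six bins by GFP to DsRed ratio, PSI derived from sequencing read proportions per bin multiplied by bin number.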
row,Variant,protein stability index
1,FDGPEAWGVCEPQREEVEERMWQA,2.61
2,FDGPEAWGVCEPQREEVEERMWCA,2.46
3,FDGPEAWGVCEPQREEVEERMWTA,2.67
4,FDGPEAWGVCEPQREEVEERMWDA,3.41
5,FDGPEAWGVCEPQREEVEERMWHA,2.58
6,FDGPEAWGVCEPQREEVEERMWRA,2.61
7,FDGPEAWGVCEPQREEVEERMWPA,2.66
8,FDGPEAWGVCEPQREEVEERMWGA,2.9
9,FDGPEAWGVCEPQREEVEERMWMA,3.08
10,FDGPEAWGVCEPQREEVEERMWSA,2.62
11,FDGPEAWGVCEPQREEVEERMWNA,2.93
12,FDGPEAWGVCEPQREEVEERMWFA,2.16
13,FDGPEAWGVCEPQREEVEERMWLA,2.23
14,FDGPEAWGVCEPQREEVEERMWWA,2.3
15,FDGPEAWGVCEPQREEVEERMWKA,2.77
16,FDGPEAWGVCEPQREEVEERMWVA,2.47
17,FDGPEAWGVCEPQREEVEERMWYA,2.04
18,FDGPEAWGVCEPQREEVEERMWEA,2.44
19,FDGPEAWGVCEPQREEVEERMWIA,2.64
20,FDGPEAWGVCEPQREEVEERMKAA,2.75
21,FDGPEAWGVCEPQREEVEERMIAA,2.63
22,FDGPEAWGVCEPQREEVEERMNAA,3.17

row,Variant,protein stability index
1,FDGPEAWGVCEPQREEVEERMDAA,3.75
2,FDGPEAWGVCEPQREEVEERMAAA,2.79
3,FDGPEAWGVCEPQREEVEERMYAA,3.73
4,FDGPEAWGVCEPQREEVEERMHAA,2.62
5,FDGPEAWGVCEPQREEVEERMEAA,3.79
6,FDGPEAWGVCEPQREEVEERMVAA,3.44
7,FDGPEAWGVCEPQREEVEERMCAA,3.17
8,FDGPEAWGVCEPQREEVEERMSAA,3.25
9,FDGPEAWGVCEPQREEVEERMLAA,2.42
10,FDGPEAWGVCEPQREEVEERMGAA,2.81
11,FDGPEAWGVCEPQREEVEERMRAA,3.59
12,FDGPEAWGVCEPQREEVEERMQAA,2.73
13,FDGPEAWGVCEPQREEVEERMPAA,3.57
14,FDGPEAWGVCEPQREEVEERMMAA,2.61
15,FDGPEAWGVCEPQREEVEERMFAA,2.57
16,FDGPEAWGVCEPQREEVEERMTAA,3.4
17,FDGPEAWGVCEPQREEVEERVWAA,3.45
18,FDGPEAWGVCEPQREEVEERQWAA,2.89
19,FDGPEAWGVCEPQREEVEEREWAA,3.56
20,FDGPEAWGVCEPQREEVEERHWAA,2.21
21,FDGPEAWGVCEPQREEVEERNWAA,2.2
22,FDGPEAWGVCEPQREEVEERIWAA,2.63

row,Variant,protein stability index
1,FDGPEAWGVCEPQREEVEERWWAA,2.46
2,FDGPEAWGVCEPQREEVEERRWAA,2.69
3,FDGPEAWGVCEPQREEVEERYWAA,2.39
4,FDGPEAWGVCEPQREEVEERAWAA,3.06
5,FDGPEAWGVCEPQREEVEERGWAA,3.27
6,FDGPEAWGVCEPQREEVEERSWAA,2.38
7,FDGPEAWGVCEPQREEVEERFWAA,2.24
8,FDGPEAWGVCEPQREEVEERTWAA,2.4
9,FDGPEAWGVCEPQREEVEERDWAA,3.16
10,FDGPEAWGVCEPQREEVEERPWAA,2.47
11,FDGPEAWGVCEPQREEVEERCWAA,2.46
12,FDGPEAWGVCEPQREEVEERKWAA,2.76
13,FDGPEAWGVCEPQREEVEERLWAA,2.71
14,FDGPEAWGVCEPQREEVEEMMWAA,3.09
15,FDGPEAWGVCEPQREEVEESMWAA,2.79
16,FDGPEAWGVCEPQREEVEEYMWAA,2.5
17,FDGPEAWGVCEPQREEVEEFMWAA,2.65
18,FDGPEAWGVCEPQREEVEECMWAA,2.6
19,FDGPEAWGVCEPQREEVEEAMWAA,3.1
20,FDGPEAWGVCEPQREEVEELMWAA,2.55
21,FDGPEAWGVCEPQREEVEEPMWAA,2.92
22,FDGPEAWGVCEPQREEVEETMWAA,3.23

row,Variant,protein stability index
1,FDGPEAWGVCEPQREEVEEVMWAA,2.67
2,FDGPEAWGVCEPQREEVEEHMWAA,2.55
3,FDGPEAWGVCEPQREEVEEQMWAA,2.77
4,FDGPEAWGVCEPQREEVEEWMWAA,2.15
5,FDGPEAWGVCEPQREEVEEIMWAA,2.27
6,FDGPEAWGVCEPQREEVEEDMWAA,2.94
7,FDGPEAWGVCEPQREEVEENMWAA,2.75
8,FDGPEAWGVCEPQREEVEEEMWAA,3.17
9,FDGPEAWGVCEPQREEVEEGMWAA,2.96
10,FDGPEAWGVCEPQREEVEEKMWAA,2.34
11,FDGPEAWGVCEPQREEVEERMWAN,2.76
12,FDGPEAWGVCEPQREEVEERMWAK,2.78
13,FDGPEAWGVCEPQREEVEERMWAT,2.49
14,FDGPEAWGVCEPQREEVEERMWAY,2.49
15,FDGPEAWGVCEPQREEVEERMWAS,2.7
16,FDGPEAWGVCEPQREEVEERMWAE,2.64
17,FDGPEAWGVCEPQREEVEERMWAD,2.88
18,FDGPEAWGVCEPQREEVEERMWAP,3.05
19,FDGPEAWGVCEPQREEVEERMWAR,2.76
20,FDGPEAWGVCEPQREEVEERMWAW,2.15
21,FDGPEAWGVCEPQREEVEERMWAH,2.56
22,FDGPEAWGVCEPQREEVEERMWAQ,2.86

row,Variant,protein stability index
1,FDGPEAWGVCEPQREEVEERMWAI,2.13
2,FDGPEAWGVCEPQREEVEERMWAM,2.51
3,FDGPEAWGVCEPQREEVEERMWAF,1.96
4,FDGPEAWGVCEPQREEVEERMWAG,3.03
5,FDGPEAWGVCEPQREEVEERMWAL,2.98
6,FDGPEAWGVCEPQREEVEERMWAC,3.55
7,FDGPEAWGVCEPQREEVEERMWAV,2.53
8,FDGPEAWGVCEPQREEVEYRMWAA,1.94
9,FDGPEAWGVCEPQREEVERRMWAA,2.35
10,FDGPEAWGVCEPQREEVEVRMWAA,1.98
11,FDGPEAWGVCEPQREEVENRMWAA,2.4
12,FDGPEAWGVCEPQREEVETRMWAA,2.87
13,FDGPEAWGVCEPQREEVEQRMWAA,2.55
14,FDGPEAWGVCEPQREEVEMRMWAA,2.22
15,FDGPEAWGVCEPQREEVESRMWAA,2.45
16,FDGPEAWGVCEPQREEVEIRMWAA,2.09
17,FDGPEAWGVCEPQREEVEKRMWAA,3.35
18,FDGPEAWGVCEPQREEVEPRMWAA,2.21
19,FDGPEAWGVCEPQREEVELRMWAA,2.17
20,FDGPEAWGVCEPQREEVEWRMWAA,2.05

# Reference: the supplement of paper PMC10567573
